The source of these data is article doi:10.1101/2020.11.17.387225.

The target of assay [1] is EccD5 (Mycobacterium xenopi). Kind of assay: cryo-EM structure.
For assay [2], the target named is EccB5 (Mycobacterium xenopi). Kind of assay: cryo-EM structure.

Take EccD5 (natural protein): the stoichiometry N in assay [1] worked out at 2.

Regarding EccB5 (natural protein), the stoichiometry N in assay [2] is 6.

The stoichiometry N is a count of units in the complex or per binding partner.
